How the values were obtained:
[1] = Single intravenous dose pharmacokinetic study; conditions: for AUC(0-24 hr) Conjugate: intact conjugate; for AUC(0-24 hr) Conjugate / CL / Vss / AUC(0-24 hr) Drug: male ICR mice; for AUC(0-24 hr) Conjugate / CL / Vss: 5 mg/kg intravenous; for CL / Vss: n = 3; for AUC(0-24 hr) Drug: 5 mg/kg intravenous of conjugate; for loss of AUC: intact conjugate AUC relative to 40a
Protocol: Six-week-old male ICR mice, from the Biolasco Taiwan, were divided into groups of three and dosed at 5 mg/kg intravenously. Blood samples were drawn from each animal at time points of 0.003, 0.083, 0.25, 0.5, 1, 2, 4, 6, 8, and 24 h and stored on ice (0–4 °C). With centrifugation (3000 rpm for 15 min at 4 °C in a Beckman Model Allegra 6R centrifuge), plasma was separated from the blood and stored in frozen conditions (−20 °C). […] The mice were sacrificed, and the blood samples of 0.5 mL each and tumor samples were collected at 0.5, 2, 6, 24, 72, and 168 h after administration. Each time point group included 4 mice. Mouse blood samples were collected in EDTA tubes and centrifuged at 13,000 rpm for 5 min at 4°C for plasma collection. Plasma and the harvested tumor samples were stored at −80°C until use. Fifty microliters of mouse plasma or the sample of tumor homogenated in ddH2O with dilution ratio of 1:3 (w/v) by MiniBeadbeater-16 (BioSpec Products Inc., OK, USA) was mixed with 100 μL of acetonitrile containing 250 ng/mL BPR0L187. The mixture was vortexed for 30 s and then centrifuged at 15000g for 20 min. The supernatant was transferred to a clean tube, and 15 μL of the supernatant was injected onto LC/MS/MS. Plasma samples were analyzed by liquid chromatography tandem mass spectrometry (LC/MS/MS). The chromatographic system Agilent 1200 series LC system and an Agilent ZORBAX Eclipse XDB-C8 column (5 μm, 3.0 × 150 mm) interfaced to an MDS Sciex API4000 tandem mass spectrometer equipped with an ESI in the positive scanning mode at 600 °C was used. Data acquisition was collected via multiple reactions monitoring (MRM). A gradient system was employed for the separation of analyte and IS. Mobile phase A was 10 mM ammonium acetate aqueous solution containing 0.1% formic acid. Mobile phase B was acetonitrile. The gradient profile was as follows: 0.0–1.1 min, 50% B; 1.2–3.7 min, 55%B–90%B; 3.8–5.0 min, 90%B–50%B. The flow rate was 1.5 mL/min. The autosampler was programmed to inject 15 μL of the sample every 5 min.

[2] = test system: MIA PaCa-2 human xenografts; assay: MIA PaCa-2 xenograft antitumor efficacy
Protocol: Cancer cells, suspending in phenol red free medium/DPBS, were mixed with Matrigel (356237, BD Biosciences, San Jose CA, USA) in a 1:1 ratio. Human pancreatic cancer MIA PaCa-2 (1 × 10^6 cells) or triple-negative breast cancer HCC1806 (1 × 10^6cells) cells were subcutaneously inoculated to left flanks of male nude mice 6 weeks old (Biolasco, Taiwan) or female nude mice 6 weeks old by using a 1 mL syringe (needle 24G × 1 in., 0.55 × 25 mm; TERUMO). Tumor dimensions were measured twice a week with an electronic caliper (FOW54-200-777, PRO-MAX, Newton, Massachusetts, USA), and the volume of the subcutaneously growing tumor in mm^3 was calculated by the following formula: volume = (length × width[2])/2. Conjugates were formulated 10% DMA/20% Cremophor EL/70% injectable solution of 5% dextrose (D5W) for treating MIA PaCa-2 and HCC1806 xenograft tumors. […] Body weight of the mice and tumor volume were measured twice weekly.

[3] = MIA PaCa-2 xenograft, 2 mg/kg intravenous (Figure S4)
[4] = 1 mg/kg intravenously twice weekly for two weeks (Figure 4)

SMILES: COc1cc2cc(c1Cl)N(C)C(=O)CC(OC(=O)C(C)N(C)C(=O)CCSSCCC(=O)NCCCCOc1cc(CN(Cc3ccccn3)Cc3ccccn3)cc(CN(Cc3ccccn3)Cc3ccccn3)c1)C1(C)OC1C(C)C1CC(O)(NC(=O)O1)C(OC)C=CC=C(C)C2.O=[N+]([O-])[O-].O=[N+]([O-])[O-].O=[N+]([O-])[O-].O=[N+]([O-])[O-].[Zn+2].[Zn+2] [Compound 27a, (1S,2R,3S,5S,6S,16E,18Z,20R,21S)-11-Chloro-21-hydroxy-12,20-dimethoxy-2,5,9,16-tetramethyl-8,23-dioxo-4,24-dioxa-9,22-diazatetracyclo[19.3.1.1.^10,140^3,5]hexacosa-10(26),11,13,16,18-pentaen-6-yl (2S)-2-[{3-[(3-{[4-(3,5-bis{[bis(Pyridin-2-ylmethyl)amino]methyl}phenoxy)butyl]amino}-3-oxopropyl)disulfanyl]propanoyl}(methyl)amino]propanoate·2[Zn(NO3)2]]
- AUC(0-24 hr) Conjugate [1]: 7051 ng·h/mL
- CL [1]: 11.5 mL/min/kg
- Vss [1]: 2.6 L/kg
- AUC(0-24 hr) Drug ([1]; released payload 14): 462 ng·h/mL
- antitumor activity [2, 3]: exhibited antitumor activities
- body weight change during treatment [2, 3]: significant body weight loss

SMILES: COc1cc2cc(c1Cl)N(C)C(=O)C[C@H](OC(=O)[C@H](C)N(C)C(=O)CCSSc1ccc(C(=O)NCCCCOc3cc(CN(Cc4ccccn4)Cc4ccccn4)cc(CN(Cc4ccccn4)Cc4ccccn4)c3)cc1)[C@]1(C)O[C@H]1[C@H](C)[C@@H]1C[C@@](O)(NC(=O)O1)[C@H](OC)/C=C\C=C(/C)C2.O=[N+]([O-])[O-].O=[N+]([O-])[O-].O=[N+]([O-])[O-].O=[N+]([O-])[O-].[Zn+2].[Zn+2] [Compound 27b, (1S,2R,3S,5S,6S,16E,18Z,20R,21S)-11-Chloro-21-hydroxy-12,20-dimethoxy-2,5,9,16-tetramethyl-8,23-dioxo-4,24-dioxa-9,22-diazatetracyclo[19.3.1.1.^10,140^3,5]hexacosa-10(26),11,13,16,18-pentaen-6-yl (2S)-2-[{3-[(4-{[4-(3,5-bis{[bis(Pyridin-2-ylmethyl)amino]methyl}phenoxy)butyl]carbamoyl}phenyl)disulfanyl]propanoyl}(methyl)amino]propanoate·2[Zn(NO3)2]]
- AUC(0-24 hr) Conjugate [1]: 318 ng·h/mL
- CL [1]: 294 mL/min/kg
- Vss [1]: 83 L/kg
- AUC(0-24 hr) Drug ([1]; released payload 14): 216 ng·h/mL
- antitumor activity [2, 3]: exhibited antitumor activities
- body weight change during treatment [2, 3]: significant body weight loss

SMILES: COc1cc2cc(c1Cl)N(C)C(=O)C[C@H](OC(=O)[C@H](C)N(C)C(=O)CCSSCCC(=O)NCc1ccc(CNC(=O)COCCOCCOCC(=O)N(CCCCOc3cc(CN(Cc4ccccn4)Cc4ccccn4)cc(CN(Cc4ccccn4)Cc4ccccn4)c3)Cc3ccc(-c4ccccc4)cc3)cc1)[C@]1(C)O[C@H]1[C@H](C)[C@@H]1C[C@@](O)(NC(=O)O1)[C@H](OC)/C=C\C=C(/C)C2.O=[N+]([O-])[O-].O=[N+]([O-])[O-].O=[N+]([O-])[O-].O=[N+]([O-])[O-].[Zn+2].[Zn+2] [Compound 30]
- AUC(0-24 hr) Conjugate [1]: 39025 ng·h/mL
- CL [1]: 2.5 mL/min/kg
- Vss [1]: 0.5 L/kg
- AUC(0-24 hr) Drug ([1]; released payload 14): 242 ng·h/mL

SMILES: CCCCCC(=O)Nc1cccc(CN(Cc2cc(CN(Cc3ccccn3)Cc3cccc(NC(=O)CCCCC)n3)cc(OCCCCNC(=O)CCSSCCC(=O)N(C)[C@@H](C)C(=O)O[C@H]3CC(=O)N(C)c4cc(cc(OC)c4Cl)C/C(C)=C/C=C\[C@@H](OC)[C@@]4(O)C[C@H](OC(=O)N4)[C@@H](C)[C@@H]4O[C@@]34C)c2)Cc2ccccn2)n1.O=[N+]([O-])[O-].O=[N+]([O-])[O-].O=[N+]([O-])[O-].O=[N+]([O-])[O-].[Zn+2].[Zn+2] [Compound 33, (1S,2R,3S,5S,6S,16E,18Z,20R,21S)-11-Chloro-21-hydroxy-12,20-dimethoxy-2,5,9,16-tetramethyl-8,23-dioxo-4,24-dioxa-9,22-diazatetracyclo[19.3.1.1.^10,140^3,5]hexacosa-10(26),11,13,16,18-pentaen-6-yl (2S)-2-[{3-[(3-{[4-(3,5-bis{[{[6-(Hexanoylamino)pyridin-2-yl]methyl}(pyridin-2-ylmethyl)amino]methyl}phenoxy)butyl]amino}-3-oxopropyl)disulfanyl]propanoyl}(methyl)amino]propanoate·2[Zn(NO3)2]]
- AUC(0-24 hr) Conjugate [1]: 14379 ng·h/mL
- CL [1]: 6.8 mL/min/kg
- Vss [1]: 0.5 L/kg
- AUC(0-24 hr) Drug ([1]; released payload 14): 270 ng·h/mL
- antitumor activity [2, 3]: exhibited antitumor activities
- body weight change during treatment [2, 3]: significant body weight loss

SMILES: CCCCCC(=O)Nc1cccc(CN(Cc2cc(CN(Cc3ccccn3)Cc3cccc(NC(=O)CCCCC)n3)cc(OCCCCNC(=O)COCCOCCOCC(=O)NCc3ccc(CNC(=O)CCSSCCC(=O)N(C)[C@@H](C)C(=O)O[C@H]4CC(=O)N(C)c5cc(cc(OC)c5Cl)C/C(C)=C/C=C\[C@@H](OC)[C@@]5(O)C[C@H](OC(=O)N5)[C@@H](C)[C@@H]5O[C@@]45C)cc3)c2)Cc2ccccn2)n1.O=[N+]([O-])[O-].O=[N+]([O-])[O-].O=[N+]([O-])[O-].O=[N+]([O-])[O-].[Zn+2].[Zn+2] [Compound 36]
- AUC(0-24 hr) Conjugate [1]: 14244 ng·h/mL
- CL [1]: 6.0 mL/min/kg
- Vss [1]: 0.4 L/kg
- AUC(0-24 hr) Drug ([1]; released payload 14): 640 ng·h/mL
- antitumor efficacy [2, 4]: potent antitumor efficacies
- body weight change during treatment [2, 4]: without apparent body weight loss

SMILES: CCCCCC(=O)Nc1cccc(CN(Cc2cc(CN(Cc3ccccn3)Cc3cccc(NC(=O)CCCCC)n3)cc(OCCCCN(Cc3ccc(-c4ccccc4)cc3)C(=O)COCCOCCOCC(=O)NCc3ccc(CNC(=O)CCC(C)(C)SSCCC(=O)N(C)[C@@H](C)C(=O)O[C@H]4CC(=O)N(C)c5cc(cc(OC)c5Cl)C/C(C)=C/C=C\[C@@H](OC)[C@@]5(O)C[C@H](OC(=O)N5)[C@@H](C)[C@@H]5O[C@@]45C)cc3)c2)Cc2ccccn2)n1.O=[N+]([O-])[O-].O=[N+]([O-])[O-].O=[N+]([O-])[O-].O=[N+]([O-])[O-].[Zn+2].[Zn+2] [Compound 40b]
- loss of AUC [1]: ~20%
- AUC(0-24 hr) Conjugate [1]: 88387 ng·h/mL
- CL [1]: 1.0 mL/min/kg
- Vss [1]: 0.2 L/kg
- AUC(0-24 hr) Drug ([1]; released payload 14): 91 ng·h/mL

SMILES: CCCCCC(=O)Nc1cccc(CN(Cc2cc(CN(Cc3ccccn3)Cc3cccc(NC(=O)CCCCC)n3)cc(OCCCCN(Cc3ccc(C(=O)NCCOCCOCCNC(=O)CCSSC(C)(C)CCC(=O)N(C)C(C)C(=O)OC4CC(=O)N(C)c5cc(cc(OC)c5Cl)CC(C)=CC=CC(OC)C5(O)CC(OC(=O)N5)C(C)C5OC45C)cc3)C(=O)C3(c4ccc(Cl)cc4)CCCCC3)c2)Cc2ccccn2)n1.O=[N+]([O-])[O-].O=[N+]([O-])[O-].O=[N+]([O-])[O-].O=[N+]([O-])[O-].[Zn+2].[Zn+2] (centres unmarked) [Compound 43]
- loss of AUC [1]: ~20%
- AUC(0-24 hr) Conjugate [1]: 84916 ng·h/mL
- CL [1]: 1.0 mL/min/kg
- Vss [1]: 0.2 L/kg
- AUC(0-24 hr) Drug ([1]; released payload 16): 48 ng·h/mL

From publication PMC9574934, “Targeting the Phosphatidylserine-Immune Checkpoint with a Small-Molecule Maytansinoid Conjugate” (Journal of Medicinal Chemistry, 2022)
